B3: GST–tagged Rpb1_(1168–1302) (domain or fragment)
chain: not shown
B4: untagged recombinant Rpb1_(1168–1302) (domain or fragment)
chain: not shown

Experiments:
Assay in all cases: pull-down
[1] = target: B3
[2] = target: B4
RECQL5_(1–620) = RECQL5_(1–620) (human, UniProt O94762 1-620)
GST–fused RECQL5_(1–620) = GST–fused RECQL5_(1–620) (human, UniProt O94762 1-620)

B1: RECQL5 IRI domain (residues 490–620) (domain or fragment)
chain: GSGDEGRDEAHKREWNLFYQKQMQLRKGKDPKIEEFVPPDENCPLKEASSRRIPRLTVKAREHCLRLLEEALSSNRQSTRTADEADLRAKAVELEHETFRNAKVANLYKASVLKKVADIHRASKDGQPYDM
binding result [1]: binds

B2: GST–RECQL5_(490–620) (domain or fragment)
chain: GSGDEGRDEAHKREWNLFYQKQMQLRKGKDPKIEEFVPPDENCPLKEASSRRIPRLTVKAREHCLRLLEEALSSNRQSTRTADEADLRAKAVELEHETFRNAKVANLYKASVLKKVADIHRASKDGQPYDM
binding result [2]: binds

B3
binding result (RECQL5_(1–620)): binds

B4
binding result (GST–fused RECQL5_(1–620)): binds

— publication PMC3702667 (Nature structural & molecular biology, 2013)
